Laboratory results as given in paper PMC6393540, “A dual role in regulation and toxicity for the disordered N-terminus of the toxin GraT”.

Molecular target: Δ22GraT in Δ22GraT2A2 complex;GraA-His in Δ22GraT2A2 complex (Pseudomonas putida;Pseudomonas putida, UniProt Q88MI5;Q88MI6 23-92;1-99, del2-22|)
Experiment: ITC; macroscopic; ITC: 50 mM Tris pH 8.0, 250 mM NaCl, 2 mM β-mercaptoethanol (TCEP in purification for ITC), 25 °C; EMSA: 5 µM DNA, 30 min at room temperature, 6% native PAGE in TBE on ice
Settings: protein: recombinant;recombinant; tags: ;C-terminal His6; chain copies: 2;2

B1: graTA operator wild type 33 bp (dsDNA)
DNA 1: AAATTAACGAATAACGTTAAGCATTCAGCTCAT
DNA 2: ATGAGCTGAATGCTTAACGTTATTCGTTAATTT
Ka: 2.3e+15 M^-2
